The target in test [1] is T1, SARS-CoV-2 spike protein (wild-type) on VSV pseudovirus (SARS-CoV-2), P0DTC2.
Test [2] concerns the target T1, SARS-CoV-2 spike protein (wild-type) on …. This is another data set of the same source.
The target is the same in test [3]. This is another data set of the same source.
The target is the same in test [4]. The source holds these as a separate data set.
Test [5] shares this target. The source holds these as a separate data set.
Test [6] has the same target. As to the kind of experiment: cell-based or functional assay.
Test [7] has the same target. The source holds these as a separate data set.
The target is the same in test [8]. The source holds these as a separate data set.

Where two headings read alike, the source gives them in different places.

B1: P043.A.00047.H08 (protein sample ID 447) (antibody, V domains shown)
VH: QSLEESGGDLVKPGASLTLTCTASGFSFSSDGMCWVRQAPGKGLEWIACIAAGSSGSTYYATWAQGRFTISKSSSTTVTLQMTSLTAADTATYFCAGEDYTGNNYYALWGPGTLVTVSS
VL: AIDMTQTPSPVSAVVGDTVTINCQASENIYSFLAWYQQKPGQPPKLLIYFASKLASGVPSRFKGSGSGTQFTLTISDVHSDDAAIYYCQQTGTYSDADNTFGGGTEVVVK
As to B1, in test [1], the IC50 (pVNT, GFP-positive infected cells) was 3.9 µg/ml and the IC90 (pVNT, GFP-positive infected cells) amounted to 18.2 µg/ml. In test [2], the IC50, pVNT (luciferase RLU, VERO 76 cells), RiboMab in HEK 293T/17 supernatant worked out at 169 ng/mL and the IC90, pVNT (luciferase RLU, VERO 76 cells), RiboMab in HEK 293T/17 supernatant was determined as 7240 ng/mL. Further, in test [3], the IC50, pVNT (luciferase RLU), RiboMab in mouse serum, biological replicate 1 was 740 ng/mL; the IC50, pVNT (luciferase RLU), RiboMab in mouse serum, biological replicate 2 was determined as 424 ng/mL; the IC90, pVNT (luciferase RLU), RiboMab in mouse serum, biological replicate 1 stood at 6390 ng/mL; the IC90, pVNT (luciferase RLU), RiboMab in mouse serum, biological replicate 2 is 4530 ng/mL.

B2: P043.A.00092.C12 (antibody)
heavy chain: QEELKETGGGLVQPGGSLTLSCKASGFDFSSYYMSWVRQAPGKGLEWIGVIYASKGSTDYASWVNGRFTISSDNAQNTVDLQMNSLTAADTATYYCARSKRFYTYGYAGYAYAHYYYGMDLWGPGTLVTVSS
light chain: AIQMTQSPSSLAASVGDTVTITCKASEDIGYGLNWYQQKLGIAPKLLIYGADTLESGVPSRFSGSGSETDYTLTISSVQAEDAGIYYCQQGYSTPLTFGAGTKVEIK
For B2, in test [1], the IC50 (pVNT, GFP-positive infected cells) stood at 0.31 µg/ml and the IC90 (pVNT, GFP-positive infected cells) was determined as 3.79 µg/ml.

B3: P043.A.00017.E04 (antibody)
heavy chain: QSVEESGGRLVTPGTPLTLTCTVSGFSLNNYAMNWVRQAPGKGLEWIGIISSSGNTYYANWAKGRFTISKTSTTVDLKITSPTTEDTATYFCARDSYPGYSPYYGMDPWGPGTLVTVSS
light chain: AIQMTQSPSSLAASVGDTVTITCKASEDIAYGLNWYQQKLGITPKLLIYGANTLESGVPSRFSGSGSETHYTLTISSVQAEDAGIYYCQQGYNTPPTFGAGTKVEIK
In test [1], B3 showed an IC50 (pVNT, GFP-positive infected cells) of 1.19 µg/ml and an IC90 (pVNT, GFP-positive infected cells) of 5.35 µg/ml.

B4: P043.A.00097.B02 (antibody)
heavy chain: QELVESGGGLVQAGESLKLSCKASGIDFSSYGISWVRQAPGKGLEWIAYIYPGFGITNYANSVKGRFTISSDNAQNTVFLQMTSLTASDTATYFCTRAYASSSGYYIHYFNLWGPGTLVTVSS
light chain: AIQMTQSPSSLAASVGDTVTITCKASEDIGYGLNWYQQKLGIAPKLLIYGANTLESGVPSRFSGSGSETDYTLTISSVQAEDAGIYYCQQAYSTPLTFGAGTKVEIK
With B4, in test [1], the IC50 (pVNT, GFP-positive infected cells) stood at 7.84 µg/ml and the IC90 (pVNT, GFP-positive infected cells) was 24.2 µg/ml.

B5: P043.A.00023.E05 (antibody)
heavy chain: QSLEESGGRLVTPGTPLTLTCTVSGFSLSSYAMSWVRQAPGKGLEWIGIISSSGSTYYASWAKGRFTISKTSTTVDLKITSPTTEDTATYFCARDASSRGYYYYYGMDPWGPGTLVTVSS
light chain: AIQMTQSPSSLAASVGDTVTITCKASEDIGYGLNWYQQKLGIAPKLLIYGANTLESGVPSRFSGSGSETDYTLTISSVQAEDAGIYYCQQGYSTPLTFGAGTKVEIK
Turning to B5, in test [1], the IC50 (pVNT, GFP-positive infected cells) was 3.75 µg/ml and the IC90 (pVNT, GFP-positive infected cells) stood at 16.6 µg/ml.

B6: P043.A.00024.C11 (protein sample ID 451) (antibody, V domains shown)
VH: QSVEESGGRLVTPGTPLTLTCTVSGFSLSSYAMSWVRQAPGKGLEWIGIISSSGTTYYASWAKGPFTISKTSTTVDLKITSPTTEDTATYFCARGGAGYGYAHYYGMDPWGPGTLVTVSS
VL: AIQMTQSPSSLAASVGDTVTITCKASEDIGYGLNWYQQKLGIAPKLLIYGANTLESGVPSRFSGSGSETDYTLTISSVQAEDAGIYYCQQGYSTPLTFGAGTKVEIK
As for B6, in test [1], the IC50 (pVNT, GFP-positive infected cells) came to 4.74 µg/ml and the IC90 (pVNT, GFP-positive infected cells) is 20.6 µg/ml. Also, in test [2], the IC50, pVNT (luciferase RLU, VERO 76 cells), RiboMab in HEK 293T/17 supernatant turned out to be 406 ng/mL and the IC90, pVNT (luciferase RLU, VERO 76 cells), RiboMab in HEK 293T/17 supernatant is 3810 ng/mL.

B7: P043.A.00095.D06 (protein sample ID 470) (antibody, V domains shown)
VH: QEQLEESGGDLVKPEGSLTLTCTASGFSFSSNYWICWVRQAPGKGLEWIGCIYIGSGDTYYASWAKGRFTISKTSSTTVTLQMTSLTAADTATYFCARSYTPGSYYNMNLWGPGTLVTVSS
VL: DVVMTQTPSSVSAAVGGTVTINCQASQQISNELSWYQQKSGQPPKLLIYDASDLASGVPSRFKGSGSGTEFTLTISDLESADAATYYCQSTGGASSDGNAFGGGTEVVVK
In test [1], B7 displayed an IC50 (pVNT, GFP-positive infected cells) of 0.28 µg/ml and an IC90 (pVNT, GFP-positive infected cells) of 2.28 µg/ml. For the same molecule, in test [2], the IC50, pVNT (luciferase RLU, VERO 76 cells), RiboMab in HEK 293T/17 supernatant was determined as 189 ng/mL. In test [4], this molecule came in with an IC50 (read off the curve), Mouse #1 of 0.05 µg/mL and an IC50 (read off the curve), Mouse #2 of 0.05 µg/mL. Also, in test [3], the IC50, pVNT (luciferase RLU), RiboMab in mouse serum, biological replicate 1 stood at 53.6 ng/mL; the IC50, pVNT (luciferase RLU), RiboMab in mouse serum, biological replicate 2 was 51.8 ng/mL; the IC90, pVNT (luciferase RLU), RiboMab in mouse serum, biological replicate 1 is 310 ng/mL; the IC90, pVNT (luciferase RLU), RiboMab in mouse serum, biological replicate 2 came to 284 ng/mL. In test [5], this molecule yielded an IC50 (read off the curve) of 0.2 µg/mL. In test [6], this molecule returned an IC90, pVNT (luciferase), RiboMab 470 in HEK 293T/17 supernatant of 449 ng/mL and an IC90, pVNT (luciferase), RiboMab 470 in mouse serum of 297 ng/mL.

B8: 465: LC of anti-S1 antibody with a C-terminal fusion of a scFv of P043.A.00017.E07 (bispecific antibody)
heavy: QMQLVQSGTEVKKPGESLKISCKGSGYGFITYWIGWVRQMPGKGLEWMGIIYPGDSETRYSPSFQGQVTISADKSINTAYLQWSSLKASDTAIYYCAGGSGISTPMDVWGQGTTVTVASTKGPSVFPLAPSSKSTSGGTAALGCLVKDYFPEPVTVSWNSGALTSGVHTFPAVLQSSGLYSLSSVVTVPSSSLGTQTYICNVNHKPSNTKVDKRVEPKSCDKTHTCPPCPAPEAAGGPSVFLFPPKPKDTLMISRTPEVTCVVVDVSHEDPEVKFNWYVDGVEVHNAKTKPREEQYNSTYRVVSVLTVLHQDWLNGKEYKCKVSNKALPAPIEKTISKAKGQPREPQVYTLPPSREEMTKNQVSLTCLVKGFYPSDIAVEWESNGQPENNYKTTPPVLDSDGSFFLYSKLTVDKSRWQQGNVFSCSVLHEALHSHYTQKSLSLSPGK
light: not shown
B8: in test [7], the IC50 (pVNT, infected cells/16 fields) was 0.21 ng/ml and the IC90 (pVNT, infected cells/16 fields) worked out at 1.05 ng/ml.

B9: 467: LC of anti-S1 antibody with a C-terminal fusion of a scFv of P043.A.00024.C11 (bispecific antibody)
heavy: QMQLVQSGTEVKKPGESLKISCKGSGYGFITYWIGWVRQMPGKGLEWMGIIYPGDSETRYSPSFQGQVTISADKSINTAYLQWSSLKASDTAIYYCAGGSGISTPMDVWGQGTTVTVASTKGPSVFPLAPSSKSTSGGTAALGCLVKDYFPEPVTVSWNSGALTSGVHTFPAVLQSSGLYSLSSVVTVPSSSLGTQTYICNVNHKPSNTKVDKRVEPKSCDKTHTCPPCPAPEAAGGPSVFLFPPKPKDTLMISRTPEVTCVVVDVSHEDPEVKFNWYVDGVEVHNAKTKPREEQYNSTYRVVSVLTVLHQDWLNGKEYKCKVSNKALPAPIEKTISKAKGQPREPQVYTLPPSREEMTKNQVSLTCLVKGFYPSDIAVEWESNGQPENNYKTTPPVLDSDGSFFLYSKLTVDKSRWQQGNVFSCSVLHEALHSHYTQKSLSLSPGK
light: not shown
In test [7], B9 returned an IC50 (pVNT, infected cells/16 fields) of 0.46 ng/ml and an IC90 (pVNT, infected cells/16 fields) of 1.42 ng/ml. Also, in test [8], the IC50 (pVNT, infected cells/16 fields) worked out at 0.4 µg/ml and the IC90 (pVNT, infected cells/16 fields) was found to be 1.19 µg/ml.

The values are drawn from patent US20230287088A1.
